Laboratory results published in patent US20250170227A1 (published 2025).
Read-outs that look alike come from different tables or passages of the source.

Assays:
C1s [1] = assay: C1s activity inhibition
C1s [2] = assay: C1s activity inhibition; remark: listed apart in the source

B1: rC1inh (other)
chain: NPNATSSSSQDPESLQDRGEGKVATTVISKMLFVEPILEVSSLPTTNSTTNSATKITANTTDEPTTQPTTEPTTQPTIQPTQPTTQLPTDSPTQPTTGSFCPGPVTLCSDLESHSTEAVLGDALVDFSLKLYHAFSAMKKVETNMAFSPFSIASLLTQVLLGAGENTKTNLESILSYPKDFTCVHQALKGFTTKGVTSVSQIFHSPDLAIRDTFVNASRTLYSSSPRVLSNNSDANLELINTWVAKNTNNKISRLLDSLPSDTRLVLLNAIYLSAKWKTTFDPKKTRMEPFHFKNSVIKVPMMNSKKYPVAHFIDQTLKAKVGQLQLSHNLSLVILVPQNLKHRLEDMEQALSPSVFKAIMEKLEMSKFQPTLLTLPRIKVTTSQDMLSIMEKLEFFDFSYDLNLCGLTEDPDLQVSAMQHQTVLELTETGVEAAAASAISVARTLLVFEVQQPFLFVLWDQQHKFPVFMGRVYDPRA
B1 showed an IC50 (C1s [1]) of 1.8 nM and an IC50 (C1s [2]) of 1.7 nM.
